The values below are quoted from earlier work in publication PMC10449480.

In this data set the target is tryptophanyl-tRNA synthetase (Geobacillus stearothermophilus) (UniProt P00953).

Consider “tryptophanyl-tRNA synthetase (from UniProt P00953)”, for which the Kd is 5 nM.
